Experiments:
HpxO = biological target: T1, HpxO (Klebsiella pneumoniae, UniProt A6T923); test: steady-state rate against NADPH, no saturation; assay type: biochemical; conditions: read-out: Km,NADPH; urate as co-substrate; printed as lower limit
T1 sequence (A6T923 1-384): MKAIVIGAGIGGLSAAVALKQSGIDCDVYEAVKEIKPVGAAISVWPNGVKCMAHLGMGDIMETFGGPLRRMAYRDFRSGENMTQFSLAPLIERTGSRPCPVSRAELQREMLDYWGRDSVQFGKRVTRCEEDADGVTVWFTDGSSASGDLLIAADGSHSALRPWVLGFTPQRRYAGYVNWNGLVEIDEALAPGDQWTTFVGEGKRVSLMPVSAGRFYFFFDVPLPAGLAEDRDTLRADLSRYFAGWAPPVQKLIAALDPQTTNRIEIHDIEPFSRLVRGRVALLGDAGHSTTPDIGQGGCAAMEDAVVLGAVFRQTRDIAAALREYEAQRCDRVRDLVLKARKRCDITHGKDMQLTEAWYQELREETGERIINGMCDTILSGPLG

purified protein = substrate: O=c1[nH]c(=O)c2[nH]c(=O)[nH]c2[nH]1; test: purified protein; assay type: biochemical, Klebsiella pneumoniae; conditions: NADH as co-substrate, saturating (1.5 mM)

With `NC(=O)C1=CN([C@@H]2O[C@H](COP(=O)(O)OP(=O)(O)OC[C@H]3O[C@@H](n4cnc5c(N)ncnc54)[C@H](OP(=O)(O)O)[C@@H]3O)[C@@H](O)[C@H]2O)C=CC1` [NADPH] the Km (HpxO) was > 1 mM.

B1: HpxO (Klebsiella pneumoniae subsp. pneumoniae MGH 78578) (protein)
chain: T1 sequence (A6T923 1-384)
B1 gave a Km (purified protein) of 42 ± 8 µM and a kcat (purified protein) of 42 ± 2 s⁻¹.
